1 substance from patent US20250154517A1 can be followed below.

For the test, the target named is NpuDnaE(C)_Hyg^R (90-341) (Nostoc punctiforme; Escherichia coli). Briefly: cell-based or functional assay.

In turn, Hyg^R(1-89)-NpuDnaE(N) showed a rooting of co-transformed poplar shoots on root induction medium supplied with Hygromycin of 80%.
